From patent US20210040232A1 (Regeneron, published 2021)

T1: soluble Macaca fascicularis CTLA-4 expressed with a C-terminal myc-myc-polyhistidine tag (Macaca fascicularis)
T1 construct: soluble protein; also called mf CTLA-4.mmh; mfCTLA4.mmh
T1 chain: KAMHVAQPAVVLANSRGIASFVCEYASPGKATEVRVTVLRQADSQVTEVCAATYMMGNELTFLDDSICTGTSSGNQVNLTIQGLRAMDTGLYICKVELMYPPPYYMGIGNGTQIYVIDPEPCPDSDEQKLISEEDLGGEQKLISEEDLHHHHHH

B1: H1H20375N (antibody, human IgG1, V domains shown)
VH: QLQLQESGPGLVKPSETLSFTCTVSGGSISSNYYYWGWVRQSPGKGLEWIGSIYHTGNAYDNPSLKSRVTISVDTSKNQFSLNLNSVTAADTAIYYCARHHSSSSWWYFDVWGRGTLVIVSS
VL: EIVLTQSPDTLSLSPGERATLSCRASQTVSNSHLAWYQQKPGQAPRLLIYGTSSRATGIPDRFSGSGSGTDFSLTIIRLEPDDFAVYFCQQHESSPPTFGQGAKLEIK
notes: here with human IgG1 Fc (H1H)
B2: H1H19278P (antibody, human IgG1, V domains shown)
VH: QVQLVESGGGVVQPGRSLRLSCAASGFTFSSYGMNWVRQAPGKGLEWVAVTWYDGSNKHYADSVKGRFTISRDNSKNTLYLQMYSLRAEDTAMYYCVRGGHLGAFDIWGQGTMVTVSS
VL: EIVLTQSPGTLSLSPGERATLSCRASQSVSSYLAWYQQKPGQAPRLLIYGASSRATGIPDRFSGGGSGTDFTLTISRLEPEDFAVYYCQQYGSSPFTFGPGTKVDIK
B3: H1H20386N (antibody, human IgG1, V domains shown)
VH: QVQLVESGGGVVQPGRSLRLSCAASGFTVNRYGIHWVRQAPGKGLEWVAVTWYDGRNKYFADSVKGRFSFSRDSSTNTLYLQMNSLRAEDTAVYYCARGGLFGYFDYWGQGTLVTVSS
VL: EIVLTQSPDTLSLSPGERATLSCRASQSVAGSYLAWYQQKPGQAPRLLIYGASSRATGIPDRFSGSGSGTDFTLTISRLEPEDFAVYYCQQYGTSPWTFGQGTKVEIT
notes: here with human IgG1 Fc (H1H)
B4: H1H20372N (antibody, human IgG1, V domains shown)
VH: EVQLVESGGGLVQPGRSLRLSCAGTGFIFDDYAMHWVRQAPGKGLEWVSGISWNSNSLGYADSVKGRFTISRDNAKKSLYLQMSSLRAEDTALYYCVKDVTRLELRGFLDYWGQGTQVTVSS
VL: DIQMTQSPSSLSASVGDRVTITCRASQDIRNDLGWHQQKSGKAPKSLIYAASSLQSGAPSRFSGSGSGTEFTLTISSLQPEDSATYYCLQQNSYPPTFGQGTKVEIK
notes: here with human IgG1 Fc (H1H)
B5: H1H19307P (antibody, human IgG1, V domains shown)
VH: EVQLVESGGGLVQPGGSLRLACAASGFTFSDYYMDWVRQVPGKGLEWVGRSRDKANSFTTEYVASVKGRFTISREDSKNSVYLQMNSLKTEDTAVYYCARTNYDFSLDVWGQGTTVTVSS
VL: DIQMTQSPSSLSASVGDRVTITCRASQDINNYLAWFQQKPGNAPKSLIYAASSLQSGVPSKFSGSGSGTDFTLTISSLQPEDFATYYCQQYSTYPITFGQGTRLEIK
B6: H1H19264P (antibody, human IgG1, V domains shown)
VH: QVQLVQSGAEVKKPGASVKVSCKASDYTFTSYGISWVRQAPGQGLEWMGWISVYNGNINYAQKFKGRVTMTTDTSTSTAYMELRSLRSDDMAVYYCARVTQFGMDVWGQGTTVTVSS
VL: DIQMTQSPSSLSASVGDRVTITCRASQSISSNLNWYQQNPGKAPKLLIYTTSSLQGGVPSRFSGSGSGTDFTLTISSLQPEDFATYYCQQSFRTPFTFGPGTKVDIK
B7: H1H19314P2 (antibody, human IgG1, V domains shown)
VH: QVQLVQSGAEVKKPGASVKVSCKASGYTLSSYGISWVRQAPGQGLEWMGWISAYNGNTNYAQKLQGRLTMTTDTSTSTAYMELRSLRSDDTAVYYCSRDGPFKISFFGMDVWGQGTTVTVSS
VL: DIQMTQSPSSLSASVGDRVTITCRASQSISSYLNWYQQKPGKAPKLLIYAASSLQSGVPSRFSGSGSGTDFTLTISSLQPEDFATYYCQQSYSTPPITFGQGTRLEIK
B8: H1H19280P (antibody, human IgG1, V domains shown)
VH: QLQLQESGPGLVKPSETLSLTCIVSGGSTSSNTYYWGWIRQPPGKGLEWIGTIHYSGNPYYDPSLKSRVTISVDTSKNHFSLKLNSVTAADTAVYYCTRQYINFFDFWGQGTLVTVSS
VL: EIVLTQSPATLSLSPGERVTLSCRASQSISRYLAWYQQKPGQAPRVLIYDASNRATDIPARFSGSGSGTDFTLTISSLEPEDFAVYYCQQRSNWPITFGQGTRLEIK
B9: H1H20373N (antibody, human IgG1, V domains shown)
VH: EVQLLESGGGLVQPGGSLRLSCAASGFTFSSYAMSWVRQAPGKGLEWVSDISGSGLSTYYADSVKGRFAISRDNSKNMLYLQMNRLRAEDTAVYYCAKEPSHWNGEAFDIWGQGTMVTVSS
VL: DIQMTQSPSSVSASVGDRVTITCRASQDISSWLAWYQQKPGKAPKLLIYTTANLQSGVPSRFSGSGSGTDFTLTISSLQSEDFATYYCQQANSFPFTFGSGTKVDIK
notes: here with human IgG1 Fc (H1H)
B10: H1H19312P (antibody, human IgG1, V domains shown)
VH: QVQLQESGPGLVKPSETLSLTCTVSGGSISSYHWSWIRQPLGKGLEWIGYIYYSGSTNYNPSLKSRVTISVDTSKNQFSLKLSSVTAADTAVYYCARGGSSIWPFDYWGQGTLVTVSS
VL: DIQMTQSPSTLSASVGDRVTITCRASQSISSWLAWYQQKSGKAPKLLISKASTLESGVPSRFSGSGSGTEFTLTISSLQPDDFATYYCQQYNIYSWTFGQGTKVEIK
B11: H1H19274P (antibody, human IgG1, V domains shown)
VH: QVQLQESGPGLVKPSETLSLTCTVSGGSINSYYWTWIRQPPGKGLEWIGYVYYSGSTTYNPSLKSRVTISVDTSKNQFFLNLNSVTAAETAVYYCARGTLGYYGMDVWGQGTTVTVSS
VL: EIVLTQSPGTLSLSPGERATLSCRASQSFSNNYLAWYQQKPGQAPRLLIYGTSIRATGIPDRFSGSGSGTDFTLAISRLEPEDFAVYYCQQYGRSPLTFGGGTKVEIK
B12: H1H19279P (antibody, human IgG1, V domains shown)
VH: QVQLVQSGAEVKKPGASVKVSCKASGYTFTDYYIHWVRQAPGQGLEWMGWINPNNGVSNYAQKFQGRVTMTRDTSISTAYMDLIRLRSDDTAVYYCARERASWDYNGVDVWGQGTTVTVSS
VL: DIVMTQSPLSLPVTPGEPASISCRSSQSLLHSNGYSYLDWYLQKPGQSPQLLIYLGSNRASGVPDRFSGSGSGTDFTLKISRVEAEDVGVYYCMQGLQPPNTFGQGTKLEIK
B13: H1H19305P (antibody, human IgG1, V domains shown)
VH: QVQLQESGPGLVKPSQTLSLTCTVSGGSITSGGYYWSWIRQHPGKGLEWIGYIFYSGITNYNPSLKSRVTISVDTSKNQFSLKLTSVTAADTAVYYCATYNSLRLYYGMDVWGQGTTVTVSS
VL: DVVMTQSPLSLPVILGQPASISCRSSQSLVYGDGNTYLNWFQQRPGQSPRRLIYKVSNRDSGVPDRFSGSGSGTDFTLKISRVEAEDVGVYYCMQSTHWPLTFGGGTKVEIK

Biological target: T2, recombinant hCTLA-4-mFc (human CTLA-4 extracellular domain with a C-terminal Fc portion of mouse IgG2a) (human)
T2 construct: also called dimeric CTLA-4 protein
T2 sequence (chain, as listed by the source limits assumed): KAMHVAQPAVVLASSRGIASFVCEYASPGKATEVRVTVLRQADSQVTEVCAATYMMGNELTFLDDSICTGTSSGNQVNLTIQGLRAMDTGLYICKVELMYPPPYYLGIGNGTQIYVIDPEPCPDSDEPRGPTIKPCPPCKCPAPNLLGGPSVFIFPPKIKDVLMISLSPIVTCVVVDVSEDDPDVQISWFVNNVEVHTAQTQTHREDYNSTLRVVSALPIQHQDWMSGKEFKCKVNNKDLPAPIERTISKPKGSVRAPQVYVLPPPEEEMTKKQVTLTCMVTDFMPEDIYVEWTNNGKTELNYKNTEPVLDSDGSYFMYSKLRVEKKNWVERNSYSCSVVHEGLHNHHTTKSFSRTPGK
Experiment: competition ELISA, 400 pM hCTLA-4-mFc on plate-coated hB7-2-hIgG1-6His

| Binder | % Blockade [%] | IC50 [nM] |
| --- | --- | --- |
| B1 | 29 |  |
| B2 | 100 | 0.54 |
| B3 | 96 | 7.7 |
| B4 | 98 | 0.99 |
| B5 | 99 | 0.29 |
| B6 | 43 |  |
| B7 | 7 |  |
| B8 | 100 | 0.2 |
| B9 | 91 | 34 |
| B10 | 99 | 0.51 |
| B11 | 100 | 0.25 |
| B12 | 100 | 0.22 |
| B13 | 99 | 0.36 |

Biological target: T2, recombinant hCTLA-4-mFc (human CTLA-4 …)
Experiment: competition ELISA, 200 pM hCTLA-4-mFc on plate-coated hB7-1-hIgG1-6His

| Binder | % Blockade [%] | IC50 [nM] |
| --- | --- | --- |
| B1 | 13 |  |
| B2 | 99 | 0.32 |
| B3 | 94 | 18 |
| B4 | 98 | 2.5 |
| B5 | 99 | 0.18 |
| B6 | 8 |  |
| B7 | 0 |  |
| B8 | 99 | 0.11 |
| B9 | 22 |  |
| B10 | 97 | 0.2 |
| B11 | 99 | 0.13 |
| B12 | 97 | 0.21 |
| B13 | 98 | 0.19 |

Biological target: T3, human CTLA-4 (amino acids M1-N223) on stably transfected VI-fibroblast cells (human, UniProt P16410 36-223)
T3 construct: also called VI-fibroblast/hCTLA-4
T3 sequence (P16410 36-223 limits assumed): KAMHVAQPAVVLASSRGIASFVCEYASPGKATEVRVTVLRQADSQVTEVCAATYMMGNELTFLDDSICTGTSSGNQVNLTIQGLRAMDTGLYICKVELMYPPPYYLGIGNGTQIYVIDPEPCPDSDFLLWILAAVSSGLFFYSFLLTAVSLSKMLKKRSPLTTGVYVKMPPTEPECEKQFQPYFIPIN
Experiment: ECL cell binding, VI-fibroblast/hCTLA-4 cells;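 further: antibodies bound to the cells on carbon electrode plates, detected via SULFO-TAG anti-IgG secondary (1 h, RT), electrochemiluminescence read as RLU over a concentration range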

| Binder | EC50 [nM] | ratio of RLU signal to parental VI-fibroblast at 0.4 nM Ab [ratio] |
| --- | --- | --- |
| B2 | 0.22 | 19 |
| B5 | 3.7 | 7 |
| B7 | 3.4 | 8 |
| B8 | 1.3 | 15 |
| B10 | 0.7 | 14 |
| B11 | 0.39 | 18 |
| B12 | 0.24 | 18 |
| B13 | 0.84 |  |

Biological target: T4, soluble human CTLA-4 expressed with a C-terminal myc-myc-polyhistidine tag (human)
T4 construct: soluble protein; also called hCTLA-4.mmh; hCTLA4.mmh
Experiment: SPR, mAb capture, 25 C

| Binder | Kd [nM] | koff [s⁻¹] | kon [M⁻¹ s⁻¹] | t1/2 [min] |
| --- | --- | --- | --- | --- |
| B1 | 66.5 | 0.00279 | 41900 | 4.1 |
| B2 | 2.25 | 0.000402 | 179000 | 28.8 |
| B3 | 10.5 | 0.00194 | 185000 | 6 |
| B4 | 4.55 | 0.000367 | 80500 | 31.5 |
| B5 | 1.31 | 0.000284 | 217000 | 40.6 |
| B6 | 12.1 | 0.000731 | 60400 | 15.8 |
| B7 | 9.87 | 0.00113 | 115000 | 10.2 |
| B8 | 1.03 | 0.000346 | 337000 | 33.4 |
| B9 | 0.766 | 0.000401 | 523000 | 28.8 |
| B10 | 3.29 | 0.00105 | 320000 | 11 |
| B11 | 1.43 | 0.00076 | 530000 | 15.2 |
| B12 | 0.752 | 0.000261 | 346000 | 44.3 |
| B13 | 4.19 |  |  | 9.5 |

Biological target: T1, soluble Macaca fascicularis CTLA-4 …
Experiment: SPR, mAb capture, 25 C

| Binder | Kd [nM] | koff [s⁻¹] | kon [M⁻¹ s⁻¹] | t1/2 [min] |
| --- | --- | --- | --- | --- |
| B2 | 6.11 | 0.00101 | 166000 | 11.4 |
| B5 | 1.4 | 0.000292 | 209000 | 39.5 |
| B6 | 20.3 | 0.000994 | 49000 | 11.6 |
| B7 | 8.57 | 0.000913 | 107000 | 12.6 |
| B8 | 0.964 | 0.000309 | 320000 | 37.4 |
| B10 | 2.28 | 0.00076 | 333000 | 15.2 |
| B11 | 0.887 | 0.000463 | 522000 | 25 |
| B12 | 0.763 | 0.000259 | 340000 | 44.6 |
